# Experimental data reported in patent publication US20260007740A1 (SPYBIOTECH, published 2026).
# Molecular target: T1, SpyCatcher-HBsAg (Hepatitis B virus (adw serotype) for …)
# T1 construct: Expressed in Pichia pastoris; also called HBsAg VLP monomer; SpyCatcher-HBsAg VLP
# Test: isopeptide conjugation in TBS, followed by SDS-PAGE and Western blot
binder,measurement,value
"RSV-F-SpyTag (RSV-F Sc9-10 DS-Cav1 A149C Y458C-SpyTag-Ctag) (other, Pre-fusion-stabilised single-chain RSV F with T4 fibritin trimerisation motif; Expressed in ExpiCHO cells, purified through the C-tag; also called RSV-F-SpyTag-Ctag; RSF-F-SpyTag) QNITEEFYQSTCSAVSKGYLSALRTGWYTSVITIELSNIKENKCNGTDAKVKLIKQELDKYKNAVTELQLLMQSTPATGSGSAICSGVAVCKVLHLEGEVNKIKSALLSTNKAVVSLSNGVSVLTFKVLDLKNYIDKQLLPILNKQSCSISNIETVIEFQQKNNRLLEITREFSVNAGVTTPVSTYMLTNSELLSLINDMPITNDQKKLMSNNVQIVRQQSYSIMCIIKEEVLAYVVQLPLYGVIDTPCWKLHTSPLCTTNTKEGSNICLTRTDRGWYCDNAGSVSFFPQAETCKVQSNRVFCDTMNSRTLPSEVNLCNVDIFNPKYDCKIMTSKTDVSSSVITSLGAIVSCYGKTKCTASNKNRGIIKTFSNGCDYVSNKGVDTVSVGNTLYCVNKQEGKSLYVKGEPIINFYDPLVFPSDEFDASISQVNEKINQSLAFIRKSDELLSAIGGYIPEAPRDGQAYVRKDGEWVLLSTFLGSGGSGAHIVMVDAYKPTKEPEA",binding result,binds
